Test results reported in patent publication US20150064204A1 (Amgen, published 2015).

Experiments:
[1] = molecular target: T1, human GITR (human, UniProt Q9Y5U5 26-241); assay: flow cytometry on activated human T cells
T1 construct: also called TNFRSF18; Glucocorticoid-induced TNFR-related gene
T1 sequence: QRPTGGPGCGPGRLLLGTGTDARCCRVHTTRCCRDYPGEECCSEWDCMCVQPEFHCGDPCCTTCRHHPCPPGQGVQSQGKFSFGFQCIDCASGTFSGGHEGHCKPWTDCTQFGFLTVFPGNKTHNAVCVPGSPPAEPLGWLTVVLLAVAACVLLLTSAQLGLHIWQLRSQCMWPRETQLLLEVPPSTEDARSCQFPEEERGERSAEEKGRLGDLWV

[2] = molecular target: T1, human GITR; assay: cell-based or functional assay
[3] = molecular target: T2, human GITR (Glucocorticoid-induced TNFR-related gene, TNFRSF18) (human, UniProt Q9Y5U5 26-241); assay: cell-based or functional assay
T2 sequence: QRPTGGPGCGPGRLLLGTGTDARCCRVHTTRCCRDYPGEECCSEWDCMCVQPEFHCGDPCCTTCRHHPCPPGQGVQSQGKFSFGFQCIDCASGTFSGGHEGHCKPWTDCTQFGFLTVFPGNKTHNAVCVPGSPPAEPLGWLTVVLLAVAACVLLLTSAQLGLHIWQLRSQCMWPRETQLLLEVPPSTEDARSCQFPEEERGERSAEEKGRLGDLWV

[4] = molecular target: T2, human GITR (Glucocorticoid-induced …); assay: flow cytometry (MFI), antibody titration on anti-CD3-activated primary human T cells (CD25+CD4+)

Binder | EC50 [1] [mg/L] | Proliferation (Fold over CD3) [2] [fold over CD3] | Proliferation EC50 [2] [mg/L] | IFNg Secretion (Fold over CD3) [3] [fold over CD3] | IFNg Secretion EC50 [3] [mg/L] | EC50 [4] [mg/L]
5H7 (antibody, human IgG1, kappa, V domains shown, Parental fully human antibody; also called Ab17; SS-10943) VH: QVQLQESGPGLVKPSQTLSLTCTVSGGSISSGGYFWSWIRQHPGKGLEWIGYIYYSGTTYYNPSLKSRVTISIDTSKNHFSLKLSSVTAADTAVYYCARDLFYYDSSGPRGFDPWGQGTLVTVSS VL: EIVLTQSPGTLSLSPGERATLSCRASQTVSSNYLAWYQQKPGQAPRLLIYGSSTRATGIPDRFSGSGSGTDFTLTISRLEPEDFAVYYCQQYDSSPWTFGQGTKVEIKR | 0.303 | 3.4 | 0.008 | – | – | –
5H7v3 (antibody, human IgG1, kappa, V domains shown, Engineered variant; also called Ab27; SS-16913) VH: QVQLQESGPGLVKPSETLSLTCTVSGGSISSGGYFWSWIRQPPGKGLEWIGYIYYSGTTYYNPSLKSRVTISIDTSKNQFSLKLSSVTAADTAVYYCARDLFYYDSSGPRGFEPWGQGTLVTVSS VL: EIVLTQSPGTLSLSPGERATLSCRASQTVSSNYLAWYQQKPGQAPRLLIYGSSTRATGIPDRFSGSGSGTDFTLTISRLEPEDFAVYYCQQYDSSPWTFGQGTKVEIKR | 0.293 | 3.2 | 0.015 | – | – | –
5H7v7 (antibody, human IgG1, kappa, V domains shown, Engineered variant; also called Ab29; SS-16917) VH: QVQLQESGPGLVKPSETLSLTCTVSGGSISSGGYFWSWIRQPPGKGLEWIGYIYYSGTTYYNPSLKSRVTISIDTSKNQFSLKLSSVTAADTAVYYCARDLFYYDTSGPRGFEPWGQGTLVTVSS VL: EIVLTQSPGTLSLSPGERATLSCRASQTVSSNYLAWYQQKPGQAPRLLIYGSSTRATGIPDRFSGSGSGTDFTLTISRLEPEDFAVYYCQQYDSSPWTFGQGTKVEIKR | 0.461 | 2.1 | 0.028 | – | – | –
5H7v18 (antibody, human IgG1, kappa, V domains shown, Engineered variant; also called Ab36; SS-16928) VH: QVQLQESGPGLVKPSETLSLTCTVSGGSISSGGYFWSWIRQPPGKGLEWIGYIYYSGTTYYNPSLKSRVTISIDTSKNQFSLKLSSVTAADTAVYYCARDLFYYDSSGPRGFEPWGQGTLVTVSS VL: EIVLTQSPGTLSLSPGERATLSCRASQTVSSNYLAWYQQKPGQAPRLLIYGSSTRATGIPDRFSGSGSGTDFTLTISRLEPEDFAVYYCQQYDTSPWTFGQGTKVEIKR | 0.804 | 2.7 | 0.012 | – | – | –
5H7v22 (antibody, human IgG1, kappa, V domains shown, Engineered variant; also called Ab38; SS-16932) VH: QVQLQESGPGLVKPSETLSLTCTVSGGSISSGGYFWSWIRQPPGKGLEWIGYIYYSGTTYYNPSLKSRVTISIDTSKNQFSLKLSSVTAADTAVYYCARDLFYYDTSGPRGFEPWGQGTLVTVSS VL: EIVLTQSPGTLSLSPGERATLSCRASQTVSSNYLAWYQQKPGQAPRLLIYGSSTRATGIPDRFSGSGSGTDFTLTISRLEPEDFAVYYCQQYESSPWTFGQGTKVEIKR | 0.786 | 1.7 | 0.027 | – | – | –
5H7v14 (antibody, human IgG1, kappa, V domains shown, Engineered variant; also called Ab34; SS-16924) VH: QVQLQESGPGLVKPSETLSLTCTVSGGSISSGGYFWSWIRQPPGKGLEWIGYIYYSGTTYYNPSLKSRVTISIDTSKNQFSLKLSSVTAADTAVYYCARDLFYYDSSGPRGFEPWGQGTLVTVSS VL: EIVLTQSPGTLSLSPGERATLSCRASQTVSSNYLAWYQQKPGQAPRLLIYGSSTRATGIPDRFSGSGSGTDFTLTISRLEPEDFAVYYCQQYESSPWTFGQGTKVEIKR | 0.995 | 1.9 | 0.031 | – | – | –
34G4 (antibody, human IgG1, kappa, V domains shown, Fully human parental antibody; also called Ab4; SS-12415) VH: QVQLVESGGGVVQPGRSLRLSCAASGFTFSSYGMHWVRQAPGKGLEWVAVIWYEGSNKYYADSVKGRFTISRDNSKNTLYLQMNSLRAEDTAVYYCARGGQLGYYYYYGMDVWGQGTTVTVSS VL: DIQMTQSPSSLSASVGDRVTITCRASQGIRNDLGWYQQKPGKAPKRLIYDASSLQSGVPSRFSGSGSGTDFTLTISSLQPEDFATYYCLQLNSYPWTFGQGTKVEIKR | – | – | – | 1.9 | 0.0002 | 0.038
33C9v5 (antibody, human IgG1, kappa, V domains shown, Engineered variant; also called Ab54; SS-16951) VH: QVQVVESGGGVVQPGRSLRLSCAASGFTFSSYGMHWVRQAPGKGLEWVSVIWYEGSNKYYADTVKGRFTISRDNSKNTLYLQMNSLRAEDTAVYYCARGGLLGYYYYYGMDVWGQGTTVTVSS VL: DIQMTQSPSSLSASVGDRVTITCRASQGIRNDLGWYQQKPGKAPKLLIYDASSLQSGVPSRFSGSGSGTEFTLTISSLQPEDFATYYCLQHHSYPWTFGQGTKVEIKR | 0.068 | 2.5 | 0.018 | – | – | –
33F6 (antibody, human IgG1, kappa, V domains shown, Fully human parental antibody; also called Ab3; SS-12414) VH: QVQLVESGGGVVQPGRSLRLSCAASGFTFSNYGMHWVRQAPGKGLEWVAVIWYVGSNKYYADSVKGRFTISRDNSKNTLYLQMNSLRAEDTAVYYCARGGELRLYYYYGMDVWGQGTTVTVSS VL: DIQMTQSPSSLSASVGDRVTITCRASQGIRNDLGWYQQKPGKAPKRLIYAASSLQSGVPSRFSGSGSGTEFTLTVSSLQPEDFATYYCLQLNSYPWTFGQGTKVEIKR | – | – | – | 2.8 | 0.0004 | 0.053
7A10 (antibody, human IgG1, kappa, V domains shown, Fully human parental antibody; also called Ab18; SS-10944) VH: QVQLVESGGGVVQPGRSLRLSCAASGFTFSSYGMHWVRQAPGKGLEWMAVIWYVGSNKYYADSVKGRFTISRDNSKNTLYLQMNSLSAEDTAVYYCARGGELGRDYYSGMDVWGQGTTVTVSS VL: DIQMTQSPSSLSASVGDRVTITCRASQGIRNDLGWYQQKPGKAPKRLIYAASSLQSGVPSRFSGSGSGTEFTLTISSLQPEDFATYYCQQHNSYPWTFGQGTKVEIKR | – | – | – | 2.2 | 0.0002 | 0.027
33C9 (antibody, human IgG1, kappa, V domains shown, Fully human parental antibody; also called Ab2; SS-12413) VH: QVQVVESGGGVVQPGRSLRLSCAASGFTFSSYGMHWVRQAPGKGLEWVSVIWYEGSNKYYADSVKGRFTISRDNSKNTLYLQMNSLRAEDTAVYYCARGGLLGYYYYYGMDVWGQGTTVTVSS VL: DIQMTQSPSSLSASVGDRVTITCRASQGIRNDLGWYQQKPGKAPKRLIYDASSLQSGVPSRFSGSGSGTEFTLTISSLQPEDFATYYCLQHHSYPWTFGQGTKVEIKR | – | – | – | 2.7 | 0.001 | 0.035
35B10 (antibody, human IgG1, kappa, V domains shown, Fully human parental antibody; also called Ab5; SS-12416) VH: QVQLVESGGGVVQPGRSLRLSCAASGFTFSSYGMHWVRQAPGKGLEWVAVIWYAGSNKYYADSVKGRFTISRDNSKNTLYLQMNSLRAEDTAVYYCARGGELSFYYYYGMDVWGQGTTVTVSS VL: DIQMTQSPSSLSASVGDRVTITCRASQGIRNDLGWYQQKPGKAPKRLIYAASTLQSGVPSRFSGSGSGTEFTLTISSLQPEDFATYYCLQHNNYPWTFGQGTKVEIKR | – | – | – | 1.9 | 0.0005 | 0.033
42A11 (antibody, human IgG1, kappa, V domains shown, Fully human parental antibody; also called Ab8; SS-12418) VH: QVQLVESGGGVVQPGRSLRLSCAASGFTFSSYGMHWVRQAPGKGLEWVAVIWYEGSNKYYADSVKGRFTISRDNSKNTLYLQMNSLRAEDTAVYYCARGGQLGYYYYSGMDVWGQGTTVTVSS VL: DIQMTQSPSSLSASVGDRVTITCRASQGIRNDLGWYQQKPGKAPKRLIYDASSLQSGVPSRFSGSGSGTDFTLTISSLQPEEFATYYCLQHNNYPWTFGQGTKVEIKR | – | – | – | 1.9 | 0.0012 | 0.051
1D7 (antibody, human IgG1, kappa, V domains shown, Fully human parental antibody; also called Ab1; SS-10942) VH: QVQLVESGGGVVQPGRSLRLSCAASGFTFSSYGMHWVRQAPGKGLEWVTVIWYEGSNKYYADSVKGRFTISRDNSKNTLYLQMNSLRAEDTAVYYCARGGQLGKYYYYGMDVWGQGTTVTVSS VL: DIQMTQSPSSLSASVGDRVTITCRASQGIRNDLGWYQQKPGKAPKRLIYDASSLQSGVPSRFSGSGSGTEFTLTISSLQPEDFATYYCLQHNNYPWTFGQGTKVEIKR | – | – | – | 2.2 | 0.0008 | 0.024
48H12 (antibody, human IgG1, kappa, V domains shown, Fully human parental antibody; also called Ab12; SS-12422) VH: QVQLVESGGGVVQPGRSLRLSCAASGFTFSSYGMHWVRQAPGKGLEWVAVIWYAGSNKYYADSVKGRFTISRDNSKNTVYLQMNSLRAEDTAVYYCARGGQLALYYYYGMDVWGQGTTVTVSS VL: DIQMTQSPSSLSASVGDRVTITCRASQGIRNDLGWYQQKPGKAPKRLIYAASSLQSGVPSRFSGSGSGTEFTLTISSLQPEDFATYYCLQHNNYPWTFGQGTKVEIKR | – | – | – | 1.2 | 0.0008 | 0.048
48H7 (antibody, human IgG1, kappa, V domains shown, Fully human parental antibody; also called Ab13; SS-12423) VH: QVQLVESGGGVVQPGRSLRLSCAASGFTFSSYGMYWVRQAPGKGLEWVAVIWYEGSNKYYADSVKGRFTISRDNSKNTLYLQMNSLRAEDTAVYFCARGGELGRDYYSGMDVWGQGTTVTVSS VL: DIQMTQSPSSLSASVGDRVTITCRASQVIRNDLGWYQQKPGKAPKRLIYAASSLQSGVPSRFSGSGSGTEFTLTISSLQPEDFATYYCLQHNSYPITFGGGTKVEIKR | – | – | – | 1.2 | 0.0006 | 0.045
41G5 (antibody, human IgG1, kappa, V domains shown, Fully human parental antibody; also called Ab7; SS-12428) VH: QVQLVESGGGVVQPGRSLRLSCAASGFTFSSYGMHWVRQAPGKGLEWVAVIWYPGSNKYYADSVKGRFTISRDNSKNTLYLQMNSLRAEDTAVYYCARGGELGRYYYYGMDVWGQGTTVTVSS VL: DIQMTQSPSSLSASVGDRVTVTCRASQGIRNDLGWYQQKPGKAPKRLIYAASSLQSGVPSRFSGSGSGTEFTLTISSLQPEDFATYYCLQHNNYPWTFGQGTKVDIKR | – | – | – | 1.9 | 0.0008 | 0.033
